{"source": "patent US20160199473A1", "about": "(Johns Hopkins, published 2016)", "binders": {"B1": {"name": "Mesothelin A3(83-92) (peptide)", "peptide": "ELAVALAQK", "notes": "Synthetic nonamer from mesothelin; printed range spans ten positions; also called MesoA3(83-92)"}, "B2": {"name": "PSCA (14-22) peptide ALQPGTALL (peptide)", "peptide": "ALQPGTALL", "notes": "Synthetic nonamer from prostate stem cell antigen; also called PSCA A2(14-22); PSCA A3(14-22)"}, "B3": {"name": "PSCA (109-117) peptide LLPALGLLL (peptide)", "peptide": "LLPALGLLL", "notes": "Synthetic nonamer from prostate stem cell antigen; also called PSCA A3(109-117); PSCA A24(109-117)"}, "B4": {"name": "PSCA (43-51) peptide QLGEQCWTA (peptide)", "peptide": "QLGEQCWTA", "notes": "Synthetic nonamer from prostate stem cell antigen; also called PSCA A3(43-51); PSCA A243-51"}, "B5": {"name": "Mesothelin A1309-318 binding epitope (EIDESLIFY) (peptide)", "peptide": "EIDESLIFY", "notes": "also called Mesothelin A1309-318 peptide"}, "B6": {"name": "PSCA (5-13) peptide LLALLMAGL (peptide)", "peptide": "LLALLMAGL", "notes": "Synthetic nonamer from prostate stem cell antigen; also called PSCA A2(5-13); PSCA A3(5-13)"}, "B7": {"name": "Mesothelin A2(20-28) (peptide)", "peptide": "SLLFLLFSL", "notes": "Synthetic nonamer from mesothelin; legends print the position as 20-29; also called Mesothelin A220-29; MesoA2(20-29)"}, "B8": {"name": "Mesothelin A2(530-538) (peptide)", "peptide": "VLPLTVAEV", "notes": "Synthetic nonamer from mesothelin; legends print the position as 530-539; also called Mesothelin A2530-539; MesoA2(530-539)"}, "B9": {"name": "Mesothelin A3(225-234) (peptide)", "peptide": "ALQGGGPPY", "notes": "Synthetic nonamer from mesothelin; printed range spans ten positions; also called MesoA3(225-234)"}, "B10": {"name": "PSCA (99-107) peptide ALQPAAAIL (peptide)", "peptide": "ALQPAAAIL", "notes": "Synthetic nonamer from prostate stem cell antigen; also called PSCA A3(99-107); PSCA A24(99-107)"}, "B11": {"name": "PSCA (20-28) peptide ALLCYSCKA (peptide)", "peptide": "ALLCYSCKA", "notes": "Synthetic nonamer from prostate stem cell antigen; also called PSCA A3(20-28); PSCA A320-28"}, "B12": {"name": "PSCA (108-116) peptide ALLPALGLL (peptide)", "peptide": "ALLPALGLL", "notes": "Synthetic nonamer from prostate stem cell antigen; also called PSCA A2(108-116); PSCA A24(108-116)"}}, "key": {"[1]": {"target": "T1, HLA-A3 (HLA-A301 allele) on T2-A3 cells (human)", "T1 construct": "whole, on cells; MHC class I molecule on the surface of T2-A3 cells", "assay": "T2 binding assay, flow cytometry with GAPA3 (FIG. 1B)", "from_the_text": "(§1) Peptide pulsed cells were stained with an unlabeled mouse anti-HLA class I molecule monoclonal antibody W6/32 and a goat-anti-mouse FITC-labeled IgG2a secondary antibody. FIG. 1E. T2 cells genetically modified to express A3 and pulsed with either: Mesothelin A1309-318 binding peptide (green line), PSCA A399-107 (pink line), A35-13 (blue line), A314-22 (orange line), A3109-117 (purple line), A343-51 (red line), and PSCA A320-28 (yellow line). Peptide pulsed cells were stained with an unlabeled mouse anti-human HLA-A3 specific monoclonal antibody GAPA3 and a FITC-labeled IgG2a secondary antibody. FIG. 1F. T2 cells genetically modified to express A24 and pulsed with either: Mesothelin A1309-318 peptide (green line), PSCA A2476-84 (pink line), PSCA A24108-116 (blue line), PSCA A2499-107 (orange line), PSCA A24109-117 (purple line), and PSCA A2477-85 (red line). Peptide pulsed cells were stained with an unlabeled pan-HLA antibody W6/32 and a FITC-labeled IgG2a secondary antibody.\n(§2) Binding of these epitopes to their respective HLA class I molecule was tested by pulsing TAP deficient T2 cells that expressed the corresponding HLA class I molecule (T2-A2, T2-A3, or T2-A24 cells). […]\n(§3) Materials and Methods: Peptide/MHC binding Assays. […] Peptide binding was determined by FACS (Beckon Dickenson, San Jose, Calif.) analysis."}, "[2]": {"target": "T1, HLA-A3 (HLA-A301 allele) on T2-A3 cells", "assay": "T2 binding assay, flow cytometry with GAPA3 (FIG. 1E)", "from_the_text": "as §1\n(§4) Binding of these epitopes to their respective HLA class I molecule was tested by pulsing TAP deficient T2 cells that expressed the corresponding HLA class I molecule (T2-A2, T2-A3, or T2-A24 cells). […] Binding of T2 cells pulsed with two candidate mesothelin derived HLA-A3 and two candidate HLA-A24 epitopes are shown in FIG. 1B and FIG. 1C, respectively. A similar binding experiment was done with the PSCA derived peptides for HLA-A2, HLA-A3, and HLA-A24. (FIG. 1D, FIG. 1E and FIG. 1F).\n(§5) Materials and Methods: Peptide/MHC binding Assays. T2 cells expressing the HLA molecule of interest were resuspended in AimV serum free media (Gibco) to a concentration of 2.5×10⁵ cells/ml and pulsed with 100-200 micrograms of peptide at room temperature overnight. Pulsing at room temperature allows for optimizing the number of empty HLA molecules available for binding each epitope (30). The cells were washed and resuspended at 1×10⁵ cells/ml. Peptide binding was determined by FACS (Beckon Dickenson, San Jose, Calif.) analysis."}, "[3]": {"target": "T2, HLA-A2 (HLA-A*0201 allele) on T2 cells (human)", "T2 construct": "whole, on cells; MHC class I molecule on the surface of T2 cells; also called T2-A2 cells", "assay": "T2 binding assay, flow cytometry with W6/32 (FIG. 1D)", "from_the_text": "as §1, §4, §5"}, "[4]": {"target": "T2, HLA-A2 (HLA-A*0201 allele) on T2 cells", "assay": "T2 peptide/MHC binding assay, flow cytometry with W6/32", "from_the_text": "as §1, §2, §3"}, "[5]": {"target": "T2, HLA-A2 (HLA-A*0201 allele) on T2 cells", "assay": "T2 binding assay, flow cytometry with W6/32 (FIG. 1A)", "from_the_text": "as §1, §2, §3"}}}
{"binder": "B1", "values": [{"measurement": "binding result", "setting": "[1]", "value": "binds"}]}
{"binder": "B2", "values": [{"measurement": "binding result", "setting": "[2]", "value": "binds"}, {"measurement": "binding result", "setting": "[3]", "value": "binds"}]}
{"binder": "B3", "values": [{"measurement": "binding result", "setting": "[2]", "value": "binds"}]}
{"binder": "B4", "values": [{"measurement": "binding result", "setting": "[2]", "value": "binds"}, {"measurement": "binding result", "setting": "[3]", "value": "binds"}]}
{"binder": "B5", "values": [{"measurement": "binding result", "setting": "[4]", "value": "no binding"}]}
{"binder": "B6", "values": [{"measurement": "binding result", "setting": "[2]", "value": "binds"}, {"measurement": "binding result", "setting": "[3]", "value": "binds"}]}
{"binder": "B7", "values": [{"measurement": "binding result", "setting": "[4]", "value": "binds"}]}
{"binder": "B8", "values": [{"measurement": "binding result", "setting": "[5]", "value": "binds"}]}
{"binder": "B9", "values": [{"measurement": "binding result", "setting": "[1]", "value": "binds"}]}
{"binder": "B10", "values": [{"measurement": "binding result", "setting": "[2]", "value": "binds"}]}
{"binder": "B11", "values": [{"measurement": "binding result", "setting": "[2]", "value": "binds"}]}
{"binder": "B12", "values": [{"measurement": "binding result", "setting": "[3]", "value": "binds"}]}
